From patent publication US20040030097A1, “Peptide mimetics” (priority 2000, published 2004)

Legend:
[1] = test system: cell proliferation; conditions: EPO, read-out: EC50 (concentration for half maximal response); cited from earlier work
[2] = test system: HeLa cells; experiment: Toxicity experiments with HeLa cells; type: cell-based
[3] = target: T1, IL-4Rα (recombinant extracellular domain of the receptor α-chain [C182A,Q206C]-IL4-BP) (Homo sapiens, UniProt P24394, C207A/Q231C); experiment: Surface plasmon resonance binding assay (BIAcore 2000) with immobilized IL-4Rα; conditions: 25° C., HBS buffer, physiological salt concentration
T1 construct: A recombinant extracellular domain of the receptor α-chain [C182A,Q206C]-IL4-BP was immobilized
T1 sequence (P24394 26-232 C207A/Q231C): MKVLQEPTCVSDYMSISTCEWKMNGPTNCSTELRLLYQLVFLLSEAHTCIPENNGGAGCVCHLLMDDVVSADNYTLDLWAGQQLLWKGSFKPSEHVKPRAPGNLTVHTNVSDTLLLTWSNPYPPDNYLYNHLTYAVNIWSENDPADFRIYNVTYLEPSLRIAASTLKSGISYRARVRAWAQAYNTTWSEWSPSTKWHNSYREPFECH
Method: The binding affinities of the designed peptide mimetics were measured by surface plasmon resonance using a BIAcore 2000 (Pharmacia Biosensor AB). A recombinant extracellular domain of the receptor α-chain [C182A,Q206C]-IL4-BP was immobilized at a biosensor CM5 to a density of 1500 to 2000 pg/mm^2, as described by Shen et al. (Shen et al., 1996). Ligand binding was analyzed at 25° C. by perfusion with HBS buffer (10 mM Hepes, pH 7.4/150 mM NaCl/3.4 mM EDTA/0.005% surfactant P20) at a flow rate of 50 μl/min.

[4] = Temperature denaturation monitored by CD at 222 nm; type: physicochemical
Method: The thermal denaturation was measured by monitoring the change in signal at 222 nm over a temperature range of 5-80° C., in a cuvette with a 2 mm path. Measurements were made in 0.5 degrees increments, with a response time of 2 s and a bandwidth of 1 nm, at a temperature slope of 50° C./h. The peptide concentration calculated from the absorbance at 280 nm was 15 μM (Pace et al., 1995).
(§1) A helical content of 34% was calculated as described above was. […] (FIG. 5).

[5] = Far UV circular dichroism, helical content; type: physicochemical; conditions: far UV CD, 278 K, 15 μM peptide, from ellipticity at 222 nm
Method: The far UV CD spectra of the peptide was recorded, on a Jasco-710 instrument, at 278 K, in a cuvette with a 2 mm path. Measurements were made every 0.1 nm, with a response time of 2 s and a bandwidth of 1 nm, at a scan speed of 50 nm/min. The spectra shown in the text represent an average over 20 scans. The peptide concentration, calculated from the absorbance at 280 nm (Pace et al., 1995) was 15 μM. The helical percentage was calculated from the mean residue ellipticity at 222 nm, taking into account the peptide length (Chen et al., 1974), according to the following:
where n is the number of residues in the peptide and θ^obs222 nm is the ellipticity of the peptide at 222 nm. The CD experiments were carried out using the same buffer conditions as in the surface plasmon resonance assays.
as §1

Substance | EC50 [1] [nM] | toxicity to mammalian cells in combination with IL-4 ([2]; in combination with IL-4 at concentrations of up to 500 μM) | concentration up to which non-toxic to mammalian cells ([2]; solup10 alone) [µM] | Kd [3] [µM] | reversibility of temperature-induced denaturation ([4]; 5-80° C., CD signal recovered upon cooling from 80 to 5° C.) | loss of helical content at assay temperature ([4]; 25° C.) | helical content [5] [%]
EPO: cytokine erythropoietin | 0.02 | – | – | – | – | – | –
solup10: 45-residue ROP-derived mini-protein containing the IL-4 binding site: MGTDIQRYERAQTLALLEKLNELDADKQADRLRKRLARNDWLFGS | – | non-toxic | ≥ 500 | 40 | reversible process | lost half of its helical content | 34
